In PMC12295664:

Columns and labels:
[1] = target: F-actin of rabbit psoas ghost muscle fibers (rabbit (endogenous in psoas muscle fibers)) (UniProt P68135); assay: reconstitution of ghost muscle fibers, washing, SDS-PAGE densitometry; single rabbit psoas ghost fibers (F-actin held in the fiber) incubated with troponin, tropomyosin and S1 at 1.0–2.5 mg/mL in 50 mM KCl, 3 mM MgCl2, 1 mM DTT, 6.7 mM K,Na–phosphate pH 7.0; unbound protein washed off; 5–10 fibers on SDS-PAGE, bands quantified with calibration curves; average molar ratios to actin
[2] = target: AEDANS–S1 (myosin subfragment-1 labeled with 1,5-IAEDANS at Cys707); assay: polarized fluorescence of AEDANS-S1 in ghost fibers; conditions: read off a plot
[3] = scale: mol actin per mol tropomyosin
[4] = S1 (no nucleotide), Actin + Tpm + Tn, + Ca2+, parent: est. 0.16
[5] = S1 (no nucleotide), Actin + Tpm + Tn, - Ca2+, parent: est. 0.14
[6] = S1 + ADP, Actin + Tpm + Tn, + Ca2+, parent: est. 0.16
[7] = S1 + ADP, Actin + Tpm + Tn, - Ca2+, parent: est. 0.18
[8] = S1 + ATP, Actin + Tpm + Tn, + Ca2+, parent: est. 0.46
[9] = S1 + ATP, Actin + Tpm + Tn, - Ca2+, parent: est. 0.36
[10] = S1 (no nucleotide), Actin + Tpm + Tn, - Ca2+, parent: est. 0.26
[11] = S1 + ADP, Actin + Tpm + Tn, + Ca2+, parent: est. 0.17
[12] = S1 + ADP, Actin + Tpm + Tn, - Ca2+, parent: est. 0.27
[13] = S1 + ATP, Actin + Tpm + Tn, - Ca2+, parent: est. 0.46
[14] = S1 + Tpm, no troponin, no nucleotide, parent: est. 0.16

Sequence of myosin subfragment-1 (S1), lacking regulatory light chains (domain or fragment) (Q28641 whole entry, the tested form may be a part): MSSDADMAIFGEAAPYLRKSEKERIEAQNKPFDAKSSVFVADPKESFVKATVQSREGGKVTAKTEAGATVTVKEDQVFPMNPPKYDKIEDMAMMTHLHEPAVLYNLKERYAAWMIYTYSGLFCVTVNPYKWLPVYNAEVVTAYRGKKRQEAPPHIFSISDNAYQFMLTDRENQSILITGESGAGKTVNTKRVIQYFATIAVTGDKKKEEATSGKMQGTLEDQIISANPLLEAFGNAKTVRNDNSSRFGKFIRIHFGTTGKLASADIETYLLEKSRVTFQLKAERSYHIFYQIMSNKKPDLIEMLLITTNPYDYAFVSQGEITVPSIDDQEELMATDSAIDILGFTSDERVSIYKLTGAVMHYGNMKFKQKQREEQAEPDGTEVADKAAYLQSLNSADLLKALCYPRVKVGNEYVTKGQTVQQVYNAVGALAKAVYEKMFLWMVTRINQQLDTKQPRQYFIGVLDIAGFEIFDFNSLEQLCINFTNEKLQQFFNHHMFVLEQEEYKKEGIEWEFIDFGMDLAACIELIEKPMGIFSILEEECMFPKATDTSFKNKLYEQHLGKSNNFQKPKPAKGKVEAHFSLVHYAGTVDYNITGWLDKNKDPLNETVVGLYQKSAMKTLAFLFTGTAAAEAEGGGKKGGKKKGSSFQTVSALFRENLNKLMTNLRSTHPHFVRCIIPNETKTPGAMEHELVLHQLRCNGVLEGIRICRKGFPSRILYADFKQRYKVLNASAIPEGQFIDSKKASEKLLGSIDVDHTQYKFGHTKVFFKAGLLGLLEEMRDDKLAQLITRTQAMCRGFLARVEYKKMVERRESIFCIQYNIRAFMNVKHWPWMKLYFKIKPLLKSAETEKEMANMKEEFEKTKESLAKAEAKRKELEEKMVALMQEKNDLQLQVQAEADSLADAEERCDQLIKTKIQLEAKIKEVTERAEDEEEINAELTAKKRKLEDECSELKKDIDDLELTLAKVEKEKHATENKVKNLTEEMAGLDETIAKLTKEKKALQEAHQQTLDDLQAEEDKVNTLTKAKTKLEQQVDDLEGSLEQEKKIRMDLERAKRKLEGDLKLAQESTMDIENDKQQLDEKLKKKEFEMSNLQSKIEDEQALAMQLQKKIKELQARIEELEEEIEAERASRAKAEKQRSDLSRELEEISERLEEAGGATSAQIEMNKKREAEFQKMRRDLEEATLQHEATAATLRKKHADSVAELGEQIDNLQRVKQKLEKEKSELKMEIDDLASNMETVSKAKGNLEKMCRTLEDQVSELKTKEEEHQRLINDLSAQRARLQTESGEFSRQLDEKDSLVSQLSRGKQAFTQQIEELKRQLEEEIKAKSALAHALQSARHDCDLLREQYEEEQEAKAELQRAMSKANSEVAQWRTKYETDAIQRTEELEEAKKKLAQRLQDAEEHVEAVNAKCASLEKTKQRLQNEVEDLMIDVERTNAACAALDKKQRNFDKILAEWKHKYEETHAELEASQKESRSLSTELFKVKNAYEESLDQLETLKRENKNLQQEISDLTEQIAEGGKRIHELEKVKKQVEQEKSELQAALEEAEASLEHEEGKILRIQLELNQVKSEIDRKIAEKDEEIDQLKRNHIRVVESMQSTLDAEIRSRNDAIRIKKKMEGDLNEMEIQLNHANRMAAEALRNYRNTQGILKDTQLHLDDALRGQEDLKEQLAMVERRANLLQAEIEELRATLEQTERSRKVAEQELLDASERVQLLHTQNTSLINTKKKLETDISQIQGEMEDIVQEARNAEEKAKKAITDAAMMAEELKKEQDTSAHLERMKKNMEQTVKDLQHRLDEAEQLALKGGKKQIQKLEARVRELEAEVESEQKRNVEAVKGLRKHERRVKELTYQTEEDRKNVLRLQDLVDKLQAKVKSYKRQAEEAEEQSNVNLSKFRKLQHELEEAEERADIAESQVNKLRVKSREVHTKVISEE
Sequence of wild-type β-tropomyosin (human TPM2) with N-terminal Met–Ala–Ser extension (natural protein) (P07951 whole entry): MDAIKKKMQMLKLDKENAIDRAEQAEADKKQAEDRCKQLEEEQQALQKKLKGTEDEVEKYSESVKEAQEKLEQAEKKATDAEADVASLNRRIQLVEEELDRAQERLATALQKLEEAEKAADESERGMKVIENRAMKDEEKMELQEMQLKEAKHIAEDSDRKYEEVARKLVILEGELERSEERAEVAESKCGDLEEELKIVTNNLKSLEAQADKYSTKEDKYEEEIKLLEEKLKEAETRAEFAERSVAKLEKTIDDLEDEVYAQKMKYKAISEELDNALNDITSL
Sequence of wild-type α-tropomyosin (Tpm1.1) with N-terminal Met–Ala–Ser extension (natural protein) (P04692 whole entry): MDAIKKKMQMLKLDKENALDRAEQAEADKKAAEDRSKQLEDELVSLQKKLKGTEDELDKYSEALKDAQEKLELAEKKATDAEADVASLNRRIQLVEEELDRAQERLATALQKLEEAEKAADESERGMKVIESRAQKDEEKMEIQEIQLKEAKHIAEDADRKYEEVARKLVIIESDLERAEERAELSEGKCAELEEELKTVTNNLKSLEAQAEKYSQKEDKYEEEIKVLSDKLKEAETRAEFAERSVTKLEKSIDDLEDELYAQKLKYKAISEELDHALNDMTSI
Sequence of wild-type γ-tropomyosin (Tpm3.12, human TPM3) with N-terminal Met–Ala–Ser extension (natural protein) (Q5KR47 whole entry): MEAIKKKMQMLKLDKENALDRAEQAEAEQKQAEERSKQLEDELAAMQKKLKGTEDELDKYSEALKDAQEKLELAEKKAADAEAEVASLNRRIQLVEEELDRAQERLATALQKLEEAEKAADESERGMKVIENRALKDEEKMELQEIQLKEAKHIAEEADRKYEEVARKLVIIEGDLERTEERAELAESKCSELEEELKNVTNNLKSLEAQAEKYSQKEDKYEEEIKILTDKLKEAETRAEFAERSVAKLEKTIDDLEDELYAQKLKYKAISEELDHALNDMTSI
Sequence of troponin (rabbit skeletal muscle troponin complex) (P02643 whole entry, looked up): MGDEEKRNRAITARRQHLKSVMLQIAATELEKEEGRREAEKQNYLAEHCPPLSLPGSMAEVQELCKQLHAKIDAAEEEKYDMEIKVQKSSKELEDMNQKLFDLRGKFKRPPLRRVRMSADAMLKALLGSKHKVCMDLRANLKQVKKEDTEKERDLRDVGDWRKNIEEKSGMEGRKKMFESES
Sequence of troponin (rabbit skeletal muscle troponin complex) (P02586 whole entry, looked up): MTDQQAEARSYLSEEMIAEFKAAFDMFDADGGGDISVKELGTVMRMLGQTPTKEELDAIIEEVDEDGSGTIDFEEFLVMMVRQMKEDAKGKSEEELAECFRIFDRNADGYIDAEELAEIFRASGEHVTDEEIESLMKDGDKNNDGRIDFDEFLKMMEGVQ

Work on “myosin subfragment-1 (S1), lacking regulatory light chains (domain or fragment)” yielded a stoichiometry N ([1]; scale: mol actin per mol S1) of 4.1.

With “troponin (rabbit skeletal muscle troponin complex) (from UniProt P02586 1-160; P02643 1-182)” the stoichiometry N ([1]; scale: mol actin per mol troponin) was 7.5.

“wild-type α-tropomyosin (Tpm1.1) with N-terminal Met–Ala–Ser extension (natural protein)” gave a stoichiometry N [1, 3] of 6.9.

In the case of “wild-type α-tropomyosin (Tpm1.1) with N-terminal Met–Ala–Ser extension K168E”, the other: N (relative number of disordered fluorophores) [2, 4] is reported as 0.17 rel. units, the other: N (relative number of disordered fluorophores) [2, 5] is reported as 0.06 rel. units and the other: N (relative number of disordered fluorophores) [2, 6] is reported as 0.11 rel. units. It also gave an other: N (relative number of disordered fluorophores) [2, 7] of 0.23 rel. units, an other: N (relative number of disordered fluorophores) [2, 8] of 0.34 rel. units and an other: N (relative number of disordered fluorophores) [2, 9] of 0.36 rel. units.

With “wild-type α-tropomyosin (Tpm1.1) with N-terminal Met–Ala–Ser extension R167H” the other: N (relative number of disordered fluorophores) [2, 4] was 0.14 rel. units, the other: N (relative number of disordered fluorophores) [2, 5] was 0.085 rel. units and the other: N (relative number of disordered fluorophores) [2, 6] was 0.2 rel. units. The other: N (relative number of disordered fluorophores) [2, 7] was 0.24 rel. units, the other: N (relative number of disordered fluorophores) [2, 8] was 0.44 rel. units and the other: N (relative number of disordered fluorophores) [2, 9] was 0.35 rel. units.

“wild-type β-tropomyosin (human TPM2) with N-terminal Met–Ala–Ser extension (natural protein)” showed a stoichiometry N [1, 3] of 6.9.

“wild-type β-tropomyosin (human TPM2) with N-terminal Met–Ala–Ser extension E117K” gave an other: N (relative number of disordered fluorophores) ([2]; S1 (no nucleotide), Actin + Tpm + Tn, + Ca2+, parent: est. 0.40) of 0.38 rel. units, an other: N (relative number of disordered fluorophores) ([2]; S1 (no nucleotide), Actin + Tpm + Tn, - Ca2+, parent: est. 0.25) of 0.28 rel. units and an other: N (relative number of disordered fluorophores) ([2]; S1 + ADP, Actin + Tpm + Tn, + Ca2+, parent: est. 0.39) of 0.39 rel. units. It also gave an other: N (relative number of disordered fluorophores) ([2]; S1 + ADP, Actin + Tpm + Tn, - Ca2+, parent: est. 0.28) of 0.33 rel. units, an other: N (relative number of disordered fluorophores) ([2]; S1 + ATP, Actin + Tpm + Tn, + Ca2+, parent: est. 0.68) of 0.6 rel. units and an other: N (relative number of disordered fluorophores) ([2]; S1 + ATP, Actin + Tpm + Tn, - Ca2+, parent: est. 0.44) of 0.53 rel. units. For the same substance, the other: N (relative number of disordered fluorophores) ([2]; S1 + Tpm, no troponin, no nucleotide, parent: est. 0.26) was 0.39 rel. units.

Substance “wild-type β-tropomyosin (human TPM2) with N-terminal Met–Ala–Ser extension R91G” has an other: N (relative number of disordered fluorophores) ([2]; S1 (no nucleotide), Actin + Tpm + Tn, + Ca2+, parent: est. 0.27) of 0.26 rel. units, an other: N (relative number of disordered fluorophores) ([2]; S1 (no nucleotide), Actin + Tpm + Tn, - Ca2+, parent: est. 0.29) of 0.28 rel. units and an other: N (relative number of disordered fluorophores) ([2]; S1 + ADP, Actin + Tpm + Tn, + Ca2+, parent: est. 0.30) of 0.28 rel. units. It also gave an other: N (relative number of disordered fluorophores) ([2]; S1 + ADP, Actin + Tpm + Tn, - Ca2+, parent: est. 0.32) of 0.27 rel. units, an other: N (relative number of disordered fluorophores) ([2]; S1 + ATP, Actin + Tpm + Tn, + Ca2+, parent: est. 0.45) of 0.61 rel. units and an other: N (relative number of disordered fluorophores) ([2]; S1 + ATP, Actin + Tpm + Tn, - Ca2+, parent: est. 0.60) of 0.38 rel. units. The other: N (relative number of disordered fluorophores) ([2]; S1 + Tpm, no troponin, no nucleotide, parent: est. 0.28) was 0.27 rel. units.

With “wild-type γ-tropomyosin (Tpm3.12, human TPM3) with N-terminal Met–Ala–Ser extension (natural protein)” the stoichiometry N [1, 3] was 6.9.

“wild-type γ-tropomyosin (Tpm3.12, human TPM3) with N-terminal Met–Ala–Ser extension E173A” gave an other: N (relative number of disordered fluorophores) ([2]; S1 (no nucleotide), Actin + Tpm + Tn, + Ca2+, parent: est. 0.17) of 0.1 rel. units, an other: N (relative number of disordered fluorophores) [2, 10] of 0.1 rel. units and an other: N (relative number of disordered fluorophores) [2, 11] of 0.13 rel. units. It also gave an other: N (relative number of disordered fluorophores) [2, 12] of 0.13 rel. units, an other: N (relative number of disordered fluorophores) ([2]; S1 + ATP, Actin + Tpm + Tn, + Ca2+, parent: est. 0.18) of 0.28 rel. units and an other: N (relative number of disordered fluorophores) [2, 13] of 0.35 rel. units. It also gave an other: N (relative number of disordered fluorophores) [2, 14] of 0.15 rel. units.

Substance “wild-type γ-tropomyosin (Tpm3.12, human TPM3) with N-terminal Met–Ala–Ser extension R90P” has an other: N (relative number of disordered fluorophores) ([2]; S1 (no nucleotide), Actin + Tpm + Tn, + Ca2+, parent: est. 0.15) of 0.2 rel. units, an other: N (relative number of disordered fluorophores) [2, 10] of 0.17 rel. units and an other: N (relative number of disordered fluorophores) [2, 11] of 0.17 rel. units. It also gave an other: N (relative number of disordered fluorophores) [2, 12] of 0.16 rel. units, an other: N (relative number of disordered fluorophores) ([2]; S1 + ATP, Actin + Tpm + Tn, + Ca2+, parent: est. 0.32) of 0.095 rel. units and an other: N (relative number of disordered fluorophores) [2, 13] of 0.1 rel. units. For the same substance, the other: N (relative number of disordered fluorophores) [2, 14] was 0.15 rel. units.

With “α-tropomyosin (rat TPM1) K168E with N-terminal Met–Ala–Ser extension (natural protein)” the stoichiometry N [1, 3] was 6.9.

Substance “α-tropomyosin (rat TPM1) R167H with N-terminal Met–Ala–Ser extension (natural protein)” has a stoichiometry N [1, 3] of 6.9.

“β-tropomyosin (human TPM2) E117K with N-terminal Met–Ala–Ser extension (natural protein)” was tested, and the stoichiometry N [1, 3] was 6.9.

“β-tropomyosin (human TPM2) Q147P with N-terminal Met–Ala–Ser extension (natural protein)” gave a stoichiometry N [1, 3] of 6.9.

“β-tropomyosin (human TPM2) R91G with N-terminal Met–Ala–Ser extension (natural protein)” was tested, and the stoichiometry N [1, 3] was 6.9.

Work on “γ-tropomyosin (Tpm3.12, human TPM3) E150A with N-terminal Met–Ala–Ser extension (natural protein)” yielded a stoichiometry N [1, 3] of 6.9.

“γ-tropomyosin (Tpm3.12, human TPM3) E173A with N-terminal Met–Ala–Ser extension (natural protein)” showed a stoichiometry N [1, 3] of 6.9.

With “γ-tropomyosin (Tpm3.12, human TPM3) R90P with N-terminal Met–Ala–Ser extension (natural protein)” the stoichiometry N [1, 3] was 6.9.
